Experimental data published in US20260097129A1 (KOOKMIN UNIVERSITY INDUSTRY ACADEMY COOPERATION FOUNDATION, published 2026).

Target: GRP94 on human CRC cells (HCT116, LoVo, HT29, HCT8) (human, UniProt P14625 22-803)
Test: cell-based or functional assay

Sequence of GRP94 on human CRC cells (HCT116, LoVo, HT29, HCT8) (P14625 22-803): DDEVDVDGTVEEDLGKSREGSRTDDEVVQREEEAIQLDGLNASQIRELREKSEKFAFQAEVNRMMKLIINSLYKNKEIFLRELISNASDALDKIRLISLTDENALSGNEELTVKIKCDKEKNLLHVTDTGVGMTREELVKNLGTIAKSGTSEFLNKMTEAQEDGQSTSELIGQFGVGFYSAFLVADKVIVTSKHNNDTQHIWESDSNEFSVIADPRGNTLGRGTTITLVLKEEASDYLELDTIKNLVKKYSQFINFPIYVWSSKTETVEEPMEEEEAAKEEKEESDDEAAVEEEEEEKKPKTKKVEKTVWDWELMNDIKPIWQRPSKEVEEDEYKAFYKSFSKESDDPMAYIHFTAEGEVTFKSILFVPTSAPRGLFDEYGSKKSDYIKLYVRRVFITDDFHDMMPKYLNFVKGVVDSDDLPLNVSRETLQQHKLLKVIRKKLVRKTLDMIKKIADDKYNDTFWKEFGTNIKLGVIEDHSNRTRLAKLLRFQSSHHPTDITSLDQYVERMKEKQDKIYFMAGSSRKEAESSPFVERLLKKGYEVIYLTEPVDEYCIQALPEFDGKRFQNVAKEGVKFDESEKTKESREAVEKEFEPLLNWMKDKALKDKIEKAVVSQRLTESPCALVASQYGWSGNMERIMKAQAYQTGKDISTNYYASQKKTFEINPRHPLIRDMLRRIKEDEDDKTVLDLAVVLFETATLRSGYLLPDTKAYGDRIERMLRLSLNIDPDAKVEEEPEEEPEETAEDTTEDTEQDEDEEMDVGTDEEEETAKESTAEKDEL

| Binder | IC50 of cell viability (CCK-8), HCT8 cells [nM] | IC50 of cell viability (CCK-8), HCT116 cells [nM] | IC50 of cell viability (CCK-8), HT29 cells [nM] | IC50 of cell viability (CCK-8), LoVo cells [nM] |
| --- | --- | --- | --- | --- |
| K101.1-DM1 (antibody, V domains shown, SMCC-DM1 conjugated to lysine residues of the antibody (positions not stated)) VH: EVQLLESGGGLVQPGGSLRLSCAASGFTFSNYSMSWVRQAPGKGLEWVSGIYYGSGNKYYADSVKGRFTISRDNSKNTLYLQMNSLRAEDTAVYYCAKNLASFDYWGQGTLVTVSS VL: QSVLTQPPSASGTPGQRVTISCSGSSSNIGSNSVNWYQQLPGTAPKLLIYSNSHRPSGVPDRFSGSKSGTSASLAISGLRSEDEADYYCGTWDSSLSGYVFGGGTKLTVL | 78.8 | 34.9 | 77.7 | 52.5 |
| K101.3-DM1 (antibody, V domains shown, SMCC-DM1 conjugated to lysine residues of the antibody (positions not stated)) VH: EVQLLESGGGLVQPGGSLRLSCAASGFTFSGYAMSWVRQAPGKGLEWVSAISHGGSSKYYADSVKGRFTISRDNSKNTLYLQMNSLRAEDTAVYYCAKDLLSPLQSIGSYDDAMDVWGQGTLVTVSS VL: not shown | 44.9 | 57.8 | 48.3 | 35.5 |
